Test results published in patent US20220162293A1 (UNIVERSITY OF BRITISH COLUMBIA, published 2022).

Columns and labels:
BSA = biological target: T1, BSA (bovine, UniProt P02769 25-607); assay: screen of hybridoma supernatants
T1 construct: Carrier protein used as negative screening antigen; also called bovine serum albumin

Linear … (SEQ ID NO: 2) = biological target: T2, Linear … (SEQ ID NO: 2); assay: indirect ELISA, peptide coated 0.1 µg/well, neat hybridoma supernatant
T2 sequence (peptide): CGGTTEQGG

[1] = biological target: T3, cyclo(CGGTTEQGG) (SEQ ID NO: 2) (cyclic peptide: head to tail cyclization (amide condensation of the linear peptide)); assay: as above
T3 construct: Coated on ELISA plates
T3 peptide: CGGTTEQGG
Method: (§1) ELISA plates were coated with 0.1 μg/well with peptide cyclo([…]) (SEQ ID NO: 2) or cyclo(CGTTEQG) (SEQ ID NO: 3) or the linear versions thereof at 100 μL/well in carbonate Coating Buffer (pH 9.6) overnight at 4 C. In other assays, cyclo([…]) (SEQ ID NO: 32) or cyclo (CGTTEGG) (SEQ ID NO: 29) were also used to coat the ELISA plates.
(§2) The plates were blocked with 3% skim milk powder in PBS for 1 hour at room temperature. The primary antibody, hybridoma tissue culture supernatant neat at 100 uL/well, was incubated for 1 hour at 37 C with shaking. The secondary antibody, goat anti-mouse IgGy-HRP at a 1:10,000 dilution was added at 100 uL/well in PBS-Tween and incubated for 1 hour at 37 C with shaking. All washing steps were performed for 30 mins with PBS-Tween. TMB Substrate was added at 50 uL/well, developed in the dark and stopped with equal volume 1M HCl. The development time was 1-2 min and the plate was read at 450 nm.

[2] = biological target: T4, TDP-43 in human spinal cord homogenates of sporadic ALS patients (human, UniProt Q13148 1-414, limits assumed); assay: dot blot of spinal cord homogenates on PVDF
T4 construct: Tissue homogenate dotted on PVDF; also called sALS samples; pathogenic TDP43 in spinal cord homogenates from ALS patients
T4 sequence (Q13148 whole entry): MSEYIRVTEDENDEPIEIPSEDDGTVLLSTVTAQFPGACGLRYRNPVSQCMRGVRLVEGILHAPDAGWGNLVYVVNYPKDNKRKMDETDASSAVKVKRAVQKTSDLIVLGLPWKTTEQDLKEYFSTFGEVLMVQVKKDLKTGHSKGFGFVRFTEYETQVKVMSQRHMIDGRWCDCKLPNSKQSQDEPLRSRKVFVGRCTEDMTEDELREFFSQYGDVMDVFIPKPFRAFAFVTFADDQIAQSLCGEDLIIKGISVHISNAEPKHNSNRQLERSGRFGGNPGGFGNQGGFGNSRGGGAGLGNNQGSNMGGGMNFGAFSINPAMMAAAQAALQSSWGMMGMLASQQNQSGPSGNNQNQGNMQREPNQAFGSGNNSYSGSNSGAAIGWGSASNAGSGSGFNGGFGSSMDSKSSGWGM

[3] = biological target: T5, Linear CGGTTEQGG (SEQ ID NO: 2); assay: indirect ELISA, peptide coated 0.1 µg/well, neat hybridoma supernatant
T5 construct: Coated on ELISA plates; also called linear peptide
T5 peptide: CGGTTEQGG
Method: as §1, §2

T1 sequence (P02769 25-607 limits assumed): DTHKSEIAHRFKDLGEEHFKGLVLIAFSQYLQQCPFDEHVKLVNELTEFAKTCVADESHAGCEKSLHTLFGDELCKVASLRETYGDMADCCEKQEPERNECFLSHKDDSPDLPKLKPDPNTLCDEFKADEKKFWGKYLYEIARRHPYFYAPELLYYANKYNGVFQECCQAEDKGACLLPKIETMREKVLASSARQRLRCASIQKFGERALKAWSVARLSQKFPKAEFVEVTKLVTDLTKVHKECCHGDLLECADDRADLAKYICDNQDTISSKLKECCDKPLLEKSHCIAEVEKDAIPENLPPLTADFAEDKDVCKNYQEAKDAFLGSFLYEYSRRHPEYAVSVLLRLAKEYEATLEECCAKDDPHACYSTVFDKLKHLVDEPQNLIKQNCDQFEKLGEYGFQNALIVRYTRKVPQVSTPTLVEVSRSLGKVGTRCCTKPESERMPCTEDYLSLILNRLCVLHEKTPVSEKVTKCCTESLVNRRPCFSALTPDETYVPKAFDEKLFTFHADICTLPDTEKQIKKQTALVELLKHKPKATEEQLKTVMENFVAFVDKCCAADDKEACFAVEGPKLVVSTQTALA

Binder | binding result (BSA) | ELISA signal (read at 450 nm) (absorbance at 450 nm) (Linear … (SEQ ID NO: 2)) | ELISA signal (read at 450 nm) [1] [absorbance at 450 nm] | binding result [2] | ELISA signal (read at 450 nm) [3] [absorbance at 450 nm]
3H5 (antibody, V domains shown, IgG1, lambda; also called clone 3H5; antibody 4) VH: QIQLVQSGPELKKPGETVKISCKASGYTFTDYSMHWVKQAPGKGLKWMGWINTETGEPTYADDFKGRFAFSLETSASTAYLQINNLKNEDTATYFCASRRWYPYYFDYWGQGTTLTVSS VL: QAVVTQESALTTSPGETVTLTCRSSTGAVTTSNYANWVQEKPDHLFTGLIGGPNNRAPGVPARFSGSLIGDKAALTITGAQTEDEAIYFCALWYSNHWVFGGGTKLTVL | no binding | 0.068 | 2.83 | – | –
11F3 (antibody, V domains shown, IgG1, kappa; also called clone 11F3; antibody 3) VH: QIQLVQSGPELKKPGETVKISCKASGYTFTDYSMHWVKHSPGKGLKWMGWINTETGEPTYADDFKGRFAFSLETSASTAYLQINNLKNEDTATYFCARGYGNWFAYWGQGTLVTVSA VL: QIVLTQSPAIMSASLGERVTMTCTASSSVSSSYLHWYQQKPGSSPKLWIYSTSNLASGVPARFSGSGSGTSYSLTISSMEAEDAATYYCHQYHRSPLTFGAGTKLELK | no binding | 0.071 | 1.1 | – | –
9C5 (antibody, V domains shown, IgG3, kappa; also called clone 9C5; antibody 6) VH: EVQLVESGGGLVKPGGSLKLSCAASGFTFSDYYMYWVRQTPEKRLEWVATISDGGSYTSYPDSVKGRFTISRDNAKNNLYLQMSSLRSEDTAMYYCARDYYGSSSYTSGFAYWGQGTLVTVSA VL: DVLMTQTPLSLPVSLGDQASISCRSSQSIVHSNGNTYLEWYLQKPGQSPKLLIYKVSNRFSGVPDRFSGSGSGTDFTLKISRVEAEDLGVYYCFQGSHVPGTFGGGTKLEIK | no binding | 0.115 | 2.29 | – | –
6C5 (antibody, V domains shown, IgG1, kappa; also called Antibody 6C5) VH: EVKLVESGGGLVQPGGSLKLSCATSGFTFSDYYMYWVRQTPEKRLEWVAYISNGGGSTYYPDTVKGRFTISRDNAKNTLYLQMSRLKSEDTAMYYCAREGGTAWFAYWGQGTLVTVSA VL: DVLMTQTPLSLPVSLGDQASISCRSSQSIVHSNGNTYLEWYLQKPGQSPKLLIYKVSNRFSGVPDRFSGSGSGTDFTLKISRVEAEDLGVYYCFQGSHVPYTFGGGTKLEIK | no binding | – | 1.1 | binds | 0.191
